Measurements from publication PMC7585440, “Sclerostin inhibits Wnt signaling through tandem interaction with two LRP6 ectodomains” (Nature Communications, 2020).

T1: human LRP6 E1 (P21-D325) with a C-terminal His tag (human, UniProt O75581 21-325, labeled with the dye NT-647 in the MST experiments (legends: Cy-5 dye-labeled))
T1 construct: low-density lipoprotein receptor-related protein 6 (LRP6), human, ectodomain E1, residues P21-D325; The methods name a 10x His tag; also called LPR6 E1; source: High Five insect cells, secreted, purified (Ni-NTA, HiTrapQ, SEC)
T1 sequence (looked up): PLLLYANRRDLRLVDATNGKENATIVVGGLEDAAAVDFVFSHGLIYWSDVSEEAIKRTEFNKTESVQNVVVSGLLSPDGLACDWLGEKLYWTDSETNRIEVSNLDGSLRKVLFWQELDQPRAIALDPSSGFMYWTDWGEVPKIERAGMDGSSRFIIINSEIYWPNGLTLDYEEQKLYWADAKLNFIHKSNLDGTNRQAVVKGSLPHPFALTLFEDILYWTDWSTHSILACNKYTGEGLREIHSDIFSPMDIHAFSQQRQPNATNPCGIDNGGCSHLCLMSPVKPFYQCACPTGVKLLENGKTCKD

T2: human LRP6 E1E2 (P21-P630) with a C-terminal 10x His tag (human, UniProt O75581 21-630, labeled with the dye NT-647 in the MST experiments (legends: Cy-5 dye-labeled))
T2 construct: low-density lipoprotein receptor-related protein 6 (LRP6), human, ectodomains E1 and E2, residues P21-P630; also called LPR6 E1E2; source: High Five insect cells, secreted, purified (Ni-NTA, HiTrapQ, SEC); for the crystal co-expressed with SOSTtr177
T2 sequence (looked up): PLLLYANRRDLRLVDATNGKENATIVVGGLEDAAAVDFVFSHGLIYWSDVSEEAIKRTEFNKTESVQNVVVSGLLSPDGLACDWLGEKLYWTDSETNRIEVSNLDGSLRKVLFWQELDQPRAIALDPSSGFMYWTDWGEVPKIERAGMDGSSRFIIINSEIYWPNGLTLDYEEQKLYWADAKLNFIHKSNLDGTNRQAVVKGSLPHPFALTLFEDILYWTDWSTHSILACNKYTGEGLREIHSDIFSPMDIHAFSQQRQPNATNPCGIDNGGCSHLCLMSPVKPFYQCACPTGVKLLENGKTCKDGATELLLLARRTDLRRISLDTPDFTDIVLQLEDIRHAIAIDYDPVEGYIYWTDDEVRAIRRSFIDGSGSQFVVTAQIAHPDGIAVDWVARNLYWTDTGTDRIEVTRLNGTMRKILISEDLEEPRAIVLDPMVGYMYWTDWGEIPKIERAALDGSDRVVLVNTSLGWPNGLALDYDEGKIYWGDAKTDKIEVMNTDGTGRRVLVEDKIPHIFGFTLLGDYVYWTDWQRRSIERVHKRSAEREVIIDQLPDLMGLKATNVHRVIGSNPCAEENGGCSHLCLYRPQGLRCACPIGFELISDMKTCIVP


Experiments:
[1] = molecular target: T1, human LRP6 E1 (P21-D325) with a …; test: MST; labeled LRP6 E1E2 or LRP6 E1 (~5 nM) titrated with unlabeled Smo-SOST, MBP-SOST, tags or peptides; 20 mM Tris-Cl pH 7.0, 200 mM NaCl, 0.5 mg/ml BSA, 0.05% Tween 20; 22 °C; three independent experiments; settings: both partners purified
[2] = molecular target: T2, human LRP6 E1E2 (P21-P630) with a …; test: as above; settings: both partners purified

Binder | Kd [1] [nM] | Kd [2] [nM]
human WT SOST (Q24-Y213) with an N-terminal His6-SUMO tag (natural protein, sclerostin (SOST), human, residues Q24-Y213; also called Smo-SOST; Smo-SOST WT; source: High Five insect cells, secreted, purified; tag not cleaved; not shown: His6, N-terminal, kept; SUMO, N-terminal, kept) QGWQAFKNDATEIIPELGEYPEPPPELENNKTMNRAENGGRPPHHPFETKDVSEYSCRELHFTRYVTDGPCRSAKPVTELVCSGQCGPARLLPNAIGRGKWWRPSGPDFRCIPDRYRAQRVQLLCPGGEAPRARKVRLVASCKCKRLTRFHNQSELKDFGTEAARPQKGRKPRPRARSAKANQAELENAY | 780 | 
human SOSTtr169 (Q24-R169) with an N-terminal His6-SUMO tag (domain or fragment, sclerostin (SOST), human, residues Q24-R169; also called Smo-SOSTtr169; source: High Five insect cells, secreted, purified; tag not cleaved; not shown: His6, N-terminal, kept; SUMO, N-terminal, kept) QGWQAFKNDATEIIPELGEYPEPPPELENNKTMNRAENGGRPPHHPFETKDVSEYSCRELHFTRYVTDGPCRSAKPVTELVCSGQCGPARLLPNAIGRGKWWRPSGPDFRCIPDRYRAQRVQLLCPGGEAPRARKVRLVASCKCKR | 870 | 
human SOSTtr177 (Q24-S177) with an N-terminal His6-SUMO tag (domain or fragment, sclerostin (SOST), human, residues Q24-S177; also called Smo-SOSTtr177; source: High Five insect cells, secreted, purified; tag not cleaved; not shown: His6, N-terminal, kept; SUMO, N-terminal, kept) QGWQAFKNDATEIIPELGEYPEPPPELENNKTMNRAENGGRPPHHPFETKDVSEYSCRELHFTRYVTDGPCRSAKPVTELVCSGQCGPARLLPNAIGRGKWWRPSGPDFRCIPDRYRAQRVQLLCPGGEAPRARKVRLVASCKCKRLTRFHNQS |  | 680
human SOSTtr178 (Q24-E178) with an N-terminal His6-SUMO tag (domain or fragment, sclerostin (SOST), human, residues Q24-E178; also called Smo-SOSTtr178; source: High Five insect cells, secreted, purified; tag not cleaved; not shown: His6, N-terminal, kept; SUMO, N-terminal, kept) QGWQAFKNDATEIIPELGEYPEPPPELENNKTMNRAENGGRPPHHPFETKDVSEYSCRELHFTRYVTDGPCRSAKPVTELVCSGQCGPARLLPNAIGRGKWWRPSGPDFRCIPDRYRAQRVQLLCPGGEAPRARKVRLVASCKCKRLTRFHNQSE |  | 680
human SOSTtr187 (Q24-A187) with an N-terminal His6-SUMO tag (domain or fragment, sclerostin (SOST), human, residues Q24-A187; also called Smo-SOSTtr187; source: High Five insect cells, secreted, purified; tag not cleaved; not shown: His6, N-terminal, kept; SUMO, N-terminal, kept) QGWQAFKNDATEIIPELGEYPEPPPELENNKTMNRAENGGRPPHHPFETKDVSEYSCRELHFTRYVTDGPCRSAKPVTELVCSGQCGPARLLPNAIGRGKWWRPSGPDFRCIPDRYRAQRVQLLCPGGEAPRARKVRLVASCKCKRLTRFHNQSELKDFGTEAA |  | 600
human SOSTtr204 (Q24-A204) with an N-terminal His6-SUMO tag (domain or fragment, sclerostin (SOST), human, residues Q24-A204; also called Smo-SOSTtr204; source: High Five insect cells, secreted, purified; tag not cleaved; not shown: His6, N-terminal, kept; SUMO, N-terminal, kept) QGWQAFKNDATEIIPELGEYPEPPPELENNKTMNRAENGGRPPHHPFETKDVSEYSCRELHFTRYVTDGPCRSAKPVTELVCSGQCGPARLLPNAIGRGKWWRPSGPDFRCIPDRYRAQRVQLLCPGGEAPRARKVRLVASCKCKRLTRFHNQSELKDFGTEAARPQKGRKPRPRARSAKA |  | 290
